Data published in patent publication US20160333105A1 (UCB, published 2016).

Experiments:
human serum albumin [1] = molecular target: T1, human serum albumin (human, UniProt P02768 25-609); assay: SPR, Biacore 3000; construct captured by anti-Fc F(ab')2, HSA as analyte, 1:1 model
T1 construct: Bought reagent; also called HSA
Description: (§1) The (A26Fab-645Fv)₂-Fc samples were captured to the sensor chip surface using either a human Fe-specific goat F(ab′)₂ (Jackson ImmunoResearch, 109-006-098) or an in-house generated anti-human CH1 monoclonal antibody. Covalent immobilisation of the capture antibody was achieved by standard amine coupling chemistry.
(§2) Kinetic binding analysis by SPR was conducted to assess the interactions of human serum albumin (HSA) to the (A26Fab-645Fv)₂-Fc fusion, when captured using either anti-Fc or anti CH1 antibody.

human serum albumin [2] = molecular target: T1, human serum albumin; assay: SPR, Biacore 3000; construct captured by anti-CH1 antibody, HSA as analyte, 1:1 model
Description: as §1, §2

human serum albumin [3] = molecular target: T1, human serum albumin; assay: SPR (BIAcore), HSA as analyte

- Kd (human serum albumin [1]): 1.88 nM
- koff (human serum albumin [1]): 7.14e-05 s⁻¹
- kon (human serum albumin [1]): 38000 M⁻¹ s⁻¹
- Kd (human serum albumin [2]): 0.97 nM
- koff (human serum albumin [2]): 6e-05 s⁻¹
- kon (human serum albumin [2]): 62000 M⁻¹ s⁻¹
- Kd (human serum albumin [3]): 0.97 nM
- Stoichiometry (human serum albumin [3]): 0.55
- koff (human serum albumin [3]): 6e-05 s⁻¹
- kon (human serum albumin [3]): 62100 M⁻¹ s⁻¹
B1: (A26Fab-645Fv)2-Fc (bispecific antibody)
heavy: not shown
light: DIQMTQSPSSLSASVGDRVTITCRATQSIYNALAWYQQKPGKAPKLLIYNANTLHTGVPSRFSASGSGTDSTLTISSLQPEDFATYYCQQYYDYPLTFGGGTKVEIKRTVAAPSVFIFPPSDEQLKSGTASVVCLLNNFYPREAKVQWKVDNALQSGNSQESVTEQDSKDSTYSLSSTLTLSKADYEKHKVYACEVTHQGLSSPVTKSFNRGECSGGGGSGGGGSDIVMTQSPSSVSASVGDRVTITCQSSPSVWSNFLSWYQQKPGKAPKLLIYEASKLTSGVPSRFKGSGSGTDFTLTISSLQPEDFATYYCGGGYSSISDTTFGGGTKVEIKRMHEQKLISEEDL
notes: Tested as HEK293 supernatant; also called (FabFv)2Fc; (A26-645Fv)2-Fc
